According to article PMC6956856:

Biological target: Drosophila melanogaster SERINC (Drosophila melanogaster)
Test: cryo-EM structure

## Drosophila melanogaster SERINC (natural protein)
  stoichiometry N: 6
